From paper doi:10.1101/2024.06.23.600241 (bioRxiv, 2024)

Legend:
[1] = target: T1, Plasmodium vivax Duffy binding protein region II (PvDBP-RII) (Plasmodium vivax Salvador I (strain as …, UniProt P22290)); assay: SPR; Biacore T200; DB9 captured on a CM5 chip amine-coupled with protein A/G; analytes flowed in a two-fold dilution series from 1 μM; 20mM HEPES pH 7.4, 150mM NaCl, 0.005% Tween-20; settings: both partners purified
T1 construct: The tag and its TEV cleavage hold only if the pET15b construct was the one used; SalI is named only for the transgenic parasites; also called RII region of PvDBP; source: the same paragraph also says cloned into modified pET15b, expressed in E. coli BL21-DE3; not shown: His-tag, N-terminal, cleaved

[2] = target: T2, PvDBP-RII subdomain 3 (Plasmodium vivax Salvador I, UniProt P22290); assay: as above; settings: both partners purified
T2 construct: also called SD3; not shown: His-tag, N-terminal, cleaved

[3] = target: T3, PvDBP-RII subdomain 3 (Plasmodium vivax, UniProt P22290 211-508); assay: SPR
T3 chain: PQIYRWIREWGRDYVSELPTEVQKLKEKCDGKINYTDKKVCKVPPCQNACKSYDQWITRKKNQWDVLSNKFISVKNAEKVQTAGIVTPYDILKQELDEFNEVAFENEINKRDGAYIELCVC

[4] = target: T4, Plasmodium vivax Duffy binding protein region II (PvDBP-RII) (Plasmodium vivax, UniProt P22290 211-508); assay: SPR
T4 chain: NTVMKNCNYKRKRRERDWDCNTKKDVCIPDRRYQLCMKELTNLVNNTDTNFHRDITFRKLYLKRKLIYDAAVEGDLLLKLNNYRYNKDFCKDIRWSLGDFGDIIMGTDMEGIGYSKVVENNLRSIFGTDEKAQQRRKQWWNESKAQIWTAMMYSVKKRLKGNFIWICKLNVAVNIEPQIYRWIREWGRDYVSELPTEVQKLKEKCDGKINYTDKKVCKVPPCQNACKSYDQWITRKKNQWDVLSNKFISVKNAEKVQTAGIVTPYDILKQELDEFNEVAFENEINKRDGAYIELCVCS

B1: monoclonal antibody DB9 (antibody, V domains shown)
VH: EVQLQESGPGLVKPSETLSLTCTVSGGSVSSSTYYWGWVRQPPGKGLEWIGSIYYSGSTYYNPSLKSRVTISVDTSKNQFSLKLSSVTAADTAVYYCARDGTGALDLWGRGTLVTVSS
VL: DIVMTQSPSTLSASVGDRVTITCRASQSISSWLAWYQQRPGKAPRLLIYKASSLLSGVPSRFGGSGSGTDFTLTISSLQPDDFATYHCQHYNTYPWTFGQGTKVEIK
notes: the Fab part of the heavy chain is in PDB 6R2S and PDB 9EZE; the light chain is in PDB 6R2S and PDB 9EZE
Work on B1 yielded a Kd [1] of 2.63 nM, a Kd [2] of 1.11 nM and a koff [3] of 0.00172 s⁻¹. The koff [4] was 0.000976 s⁻¹.
